Experimental findings from the DeepSol protein solubility set are described below.

The nature of this data set: soluble on expression in E. coli; label from the status in PepcDB or PDB records.
In the case of “MGSDKIHHHHHHLNGHGYHVTGTKTTQDGVEAARMSGIECYQLVLTPELECDADELSALLQVDVLIVTLPASRTAEGGEGYAQAVQQLVNMARVFHVPRIIFTSSTSVYGDGSGTVRETSPLQPTTVAGKTLVSLEQWLQHLPDISVDILRLAGLVGGDRHPGRFLAGKTNLPRGNHGVNLVHQEDVLAAILLLLKLPNGGHIYNLCATEHPARQDFYPEQARRLHVSTPQFAPVTDSSQGRIVDGQRICHELGFDYQYPNPSTMPLNAGESR”, the “soluble on expression in E. coli” value is on record as “not soluble”.

On to “MGSDKIHHHHHHMIKELKTLIAVAREGTFAAAGDRIGLTQAAVSAQMQRLEAQLGVELFDRKGRSAQLNRMGQQVLLQGQELVRLYGSLGNSATGSAPNVLVTIGAIASVQRSFLPDALALFHRQFPQCRTRVIPGLSMDLVNQVDAGEVDLAAIIRPPFSLHSDLRWTTLMREPYRLIVPADLQGEDWAELISSQPFIRYDRSSFGGRQVDRFLRQTHVSLREVCELDELDAIVKLVANGVGVALVPETATIQAWPAGVRAVNLGPHTFHRDIGLVHRARRSLTEPVNVLAQLLTAQVQDTQ”, for which the “soluble on expression in E. coli” value is “not soluble”.

In the case of “MLLSGERIDQLYADDIQIIQSKEVFSFSIDAVLLANFPQLPKKGKIVDLCAGNGAVGLFVSRKTAAKIDQIELQPRLADMGQRSILLNKLEKQVTMYERDLKQATEVIKKDSVDLVLCNPPYFKERPTSQKNPNPHLAIARHEIHTSLQEVVTVSADLLKTNGRLAMVHRPDRFLDILHAMENANIAPKKARFVYPKPGKEANVLLIEGIKQGKKDGFRVLPPLFTYNEKNEYEAEMKAMLYGE”, the “soluble on expression in E. coli” value is recorded as “not soluble”.

Turning to “MGSDKIHHHHHHMSHKFKFLTLPHRSGEVANVFIHGYSAGHDMEDRCALRKCIPSSLHNCINIFAFWPSGHWAKFDDWSSKSILAAGRLSFLAGAGLAVADRAFHFNTSRKRATAMGKTLLSQLETYLLKHHPYVSKVNLVGHSLGGRVVIHALLDLQGKPADDSLVIGDVLLMAAASTLSGDEAKTIGERINGKLYNAWSSDDKVLLFNLGENSAGRQEIDHCQNVPMHGFGHTDYWPRLDRVLRASGFHGYRGGLPSAIQPELVIKNPDPVVADHLLYDLLELTSDGIRSQVVKHLRSSSWTKLETEHPLYLLTKEFQLLGGHCLVNLARGKGLKYVQILLMLAEHYGLVSELHDCAQVIEMEALLISKCFQSSFGEEHVLASMQDIVLQIHGLSEKEYFEQVDALAASLTVTSYISTPETPAPVYRKTGSAQTGDSKELVLASGSFLTSFSTLMPTERMKAAVINLKSAVKPGYSALIPAVAAVFYARLKLNNEGLL”, the “soluble on expression in E. coli” value is “not soluble”.

On to “MNSNYKRYKMLVFDLDGTLLNNNHEIAFLTLEVLLALKEDFKIIIATGRRLSEVKNIRSQLKEISINENYLVTANGAEVFLQENLIFRYAMNYDLAKEILKINTDNVDVNLYTFDTWYSNADVKSPIMKHFIKDLGLNVIIGDLTKLNVDSVSKIVYYCDDLAILNKLDTEIKSKDFQDTRVFFSSKDLLEVTNINANKYNAIKNIAFLESIPLCDVLAFGDNNNDYEMLKNLGKGVLMKNANEFLKINLAKNEITRFSNNEDGVARFLIDFFKLNIKY”, for which the “soluble on expression in E. coli” value is reported as “not soluble”.

As to “MSLKTSRLPIAIQQAVMRRLREKLAQANLKLGRNYPEPKLSYTQRGTSAGTAWLESYEIRLNPVLLLENSEAFIEEVVPHELAHLLVWKHFGRVAPHGKEWKWMMESVLGVPARRTHQFELQSVRRNTFPYRCKCQEHQLTVRRHNRVVRGEAVYRCVHCGEQLVAKEGHHHHHH”, the “soluble on expression in E. coli” value is reported as “not soluble”.

With “MIIPALDLIDGTVVRLHQGDYARQRDYGNDPLPRLQDYAAQGAGVLHLVDLTGAKDPAKRQIPLIKTLVAGVNVPVQVGGGVRTEEDVAALLKAGVARVVIGSTAVKSPDVVKGWFERFGAQALVLALDVRIDEHGTKQVAVSGWQENSGVSLEQLVETYLPVGLKHVLCTDISRDGTLAGSNVSLYEEVCARYPQIAFQSSGGIGDIDDIAALRGTGVRGVIVGRALLEGKFTVKEAIQCWQNV”, the “soluble on expression in E. coli” value is listed as “not soluble”.

Regarding “MGSDKIHHHHHHMSNDETVEKVTQQVSELKSTDVKEQVVTPWDVEGGVDEQGRAQNIDYDKLIKQFGTKPVNEETLKRFKQVTGREPHHFLRKGLFFSERDFTKILDLYEQGKPFFLYTGRGPSSDSMHLGHMIPFVFTKWLQEVFDVPLVIELTDDEKFLFKHKLTINDVKNFARENAKDIIAVGFDPKNTFIFSDLQYMGGAFYETVVRVSRQITGSTAKAVFGFNDSDCIGKFHFASIQIATAFPSSFPNVLGLPDKTPCLIPCAIDQDPYFRVCRDVADKLKYSKPALLHSRFFPALQGSTTKMSASDDTTAIFMTDTPKQIQKKINKYAFSGGQVSADLHRELGGNPDVDVAYQYLSFFKDDDVFLKECYDKYKSGELLSGEMKKLCIETLQEFVKAFQERRAQVDEETLDKFMVPHKLVWGEKERLVAPKPKTKQEKK”, the “soluble on expression in E. coli” value is on record as “not soluble”.

Take “MAAAREPELPQEAPATEPAPPPACRFFLEGRCRFGARCRQPHPGAPAPPGREAQPEAGAKKPPLRTAADVIQRIRWDPRLDPADFSVGYVDRFLGVREEPFSAFCWDQPLAALGPGVLAVPQHRVRFFRFHGRLVWDRASRTDLVFGSGSAAGRGPTILDAPNTEGAHGAEGAEWTLAGTGQEAQAAPKRGSTRPLCTGHQEPGVEEPGELEAAQERALGTAADLGTLAPRGRLAGVTEEALKPTAATRTTLLGGKEAQALGVPGGSAETTEAEWGPAAWPEDKRARLSVAAPCQPRPTHFVALMVTEPGLQAEVTKAQEYLVHVAPHCANFLVPSQNLHLTLALLRLAGAGEEAAAIGALRRALLAPGLNAPPRLSFRKLVLLGPHVLCAPPSPTLESMAQVLSQRLEAEGLSTLQSPGQLHPHLTVAKVPHGSQVHLPKLEFTLSQEVGCQPLQTLWLCRIGRTGGPFQPLAEIRLE”: the “soluble on expression in E. coli” value is given as “soluble”.

In the case of “AHHHHHHGSKILWAPWRIEYIRAPKHEGCIFCDFPRENRDRERLILYRGKHAFIIMNNYPYNPGHVMVAPYRHVASVEDLTDEEMLEIMKLAALIMKAIRKVMKPDGFNLGFNIGKVAGAGVDGHVHLHIVPRWNGDTNFMPVIADTKVIPESLEQAYEELKKALEEIENAE”, the “soluble on expression in E. coli” value is “soluble”.

Regarding “MFLTKVSLLDHPESLPGYLSSLAIVEYLHEQPLEFRAPITVITGENGVGKSTLVEALAVGMRLNPSGGSRHANFGREGDIVSSLHQSLKLVRRENPRDAFFFRGETMYNVASYYEELMGEKNMHDLHKMSHGESVFAVIDRRFNNQGFFVLDEPEAGLSMLRQLELLGKLGNLARGGAQIIMATHSPILLAIPGAEILEITSSGVAKVNFEDAEAVRAAREFVADPRGTAAFLTAEEDHQ”, the “soluble on expression in E. coli” value is “soluble”.

With “MAHHHHHHMIGSFRIIRLPRTASSLRSLNGGQRSPHDDVVCGRQPQGLEGGRKGESVDGGIRPSFTRVGQLTDTYRTRRAGWLCQRDDRWTERRPFQPAGIFLEGGEEAGRVDLRLTDMQRIYDVGPISAENERFAASTLLYATDEVRSLLVEKEWIKLYCLHGVAAADDECNIAFVDLTEKLEDVKRVLVAWKEKDA”, the “soluble on expression in E. coli” value is “not soluble”.

With “DELCVVCGDKATGYHYRCITCEGCKGFFRRTIQKNLHPSYSCKYEGKCVIDKVTRNQCQECRFKKCIYVGMATDLVLDDSKRLAKRKLIEENREKRRREELEK”, the “soluble on expression in E. coli” value is reported as “soluble”.

As for “MYKYFDAHCHYSYLKKKYEGYLIAAVSMDYQSAMDTFSLKSDNVLVGVGIHPWRVHEEDLTRILSLIIKADFVGEVGLDYRFAKAPKELQIKYFEEQIKAGEGKLINVHALDAWKDAFNILVKNDVKSAIFHWYTGPINLLKDIESAGYFISINPSVSFQKKHQEVLKNVDLKNVLTESDGGYEYRGKLLEPSDIPNAISFMSNFLGIEEYKLVRIISNNFFKAYGVNPVNN”, the “soluble on expression in E. coli” value was “not soluble”.
